B1: SEQ ID NO:58 (protein)
chain: MADLYENPMGLMGFEFIEFASPTPGTLEPIFEIMGFTKVATHRSKNVHLYRQGEINLILNNEPNSIASYFAAEHGPSVCGMAFRVKDSQKAYNRALELGAQPIHIDTGPMELNLPAIKGIGGAPLYLIDRFGEGSSIYDIDFVYLEGVERNPVGAGLKVIDHLTHNVYRGRMVYWANFYEKLFNFREARYFDIKGEYTGLTSKAMSAPDGMIKIPLNEESSKGAGQIEEFLMQFNGEGIQHVAFLTDDLVKTWDALKKIGMRFLTAPGDEYYEMLEGRLPDHGEPVDQLQARGILLDGSSVEGDKRLLLQIFSEQLMGPVFFEFIQRKGDDGFGPHSFKVLFEQMERDQVRRGVLTAD
modifications: mutant HPPD polypeptide
B2: SEQ ID NO:65 (protein)
chain: MADLYENPMGLMGFEFIEFASPTPGTLEPIFEIMGFTKVATHRSKNVHLYRQGEINLILNNEPNSIASYFAAEHGPSVCGMAFRVKDSQKAYNRALELGAQPIHIDTGPMELNLPAIKGIGGAPLYLIDRFGEGSSIYDIDFVYLEGVERNPVGAGLKVIDHLTHNVYRGRMVYWANFYEKLFNFREARYFDIKGEYTGLTSKAMSAPDGMIRIPLNEESSKGAGQIEEFLMQFNGEGIQHVAFLTDDLVKTWDALKKIGMRFLTAPGDEYYEMLEGRLPDHGEPVDQLQARGILLDGSSVEGDKRLLLQIFSEKLMGPVFFEFIQRKGDDGFGPDSFKVLFEQIERDQVRRGVLTAD
modifications: mutant HPPD polypeptide
B3: SEQ ID NO:68 (protein)
chain: MADLYENPMGLMGFEFIEFASPTPGTLEPIFEIMGFTKVATHRSKNVHLYRQGEINLILNNEPNSIASYFAAEHGPSVCGMAFRVKDSQKAYNRALELGAQPIHIDTGPMELNLPAIKGIGGAPLYLIDRFGEGSSIYDIDFVYLEGVERNPVGAGLKVIDHLTHNVYRGRMVYWANFYEKLFNFREARYFDIKGEYTGLTSKAMSAPDGMIKIALNEESSKGAGQIEEFLMQFNGEGIQHVAFLTDDLVKTWDALKKIGMRFLTAPGDEYYEMLEGRLPDHGEPVDQLQARGILLDGSSVEGDKRLLLQIFSEQLMGPVFFEFIQRKGDDGFGPDSFKVLFEQIERDQVRRGVLTAD
modifications: mutant HPPD polypeptide
B4: SEQ ID NO:60 (protein)
chain: MADLYENPMGLMGFEFIEFASPTPGTLEPIFEIMGFTKVATHRSKNVHLYRQGEINLILNNEPNSIASYFAAEHGPSVCGMAFRVKDSQKAYNRALELGAQPIHIDTGPMELNLPAIKGIGGAPLYLIDRFGEGSSIYDIDFVYLEGVERNPVGAGLKVIDHLTHNVYRGRMVYWANFYEKLFNFREARYFDIKGEYTGLTSKAMSAPDGMIKIPLNEESSKGAGQIEEFLMQFNGEGIQHVAFLTDDLVKTWDALKKIGMRFLTAPGDEYYEMLEGRLPDHGEPVDQLQARGILLDGSSVEGDKRLLLQIFSEKLMGPVFFEFIQRKGDDGFGPDSFKVLFEQMERDQVRRGVLTAD
modifications: mutant HPPD polypeptide
B5: SEQ ID NO:59 (protein)
chain: MADLYENPMGLMGFEFIEFASPTPGTLEPIFEIMGFTKVATHRSKNVHLYRQGEINLILNNEPNSIASYFAAEHGPSVCGMAFRVKDSQKAYNRALELGAQPIHIDTGPMELNLPAIKGIGGAPLYLIDRFGEGSSIYDIDFVYLEGVERNPVGAGLKVIDHLTHNVYRGRMVYWANFYEKLFNFREARYFDIKGEYTGLTSKAMSAPDGMIRIPLNEESSKGAGQIEEFLMQFNGEGIQHVAFLTDDLVKTWDALKKIGMRFLTAPGDEYYEMLEGRLPDHGEPVDQLQARGILLDGSSVEGDKRLLLQIFSEKLMGPVFFEFIQRKGDDGFGPDSFKVLFEQMERDQVRRGVLTAD
modifications: mutant HPPD polypeptide
B6: SEQ ID NO:64 (protein)
chain: MADLYENPMGLMGFEFIEFASPTPGTLEPIFEIMGFTKVATHRSKNVHLYRQGEINLILNNEPNSIASYFAAEHGPSVCGMAFRVKDSQKAYNRALELGAQPIHIDTGPMELNLPAIKGIGGAPLYLIDRFGEGSSIYDIDFVYLEGVERNPVGAGLKVIDHLTHNVYRGRMVYWANFYEKLFNFREARYFDIKGEYTGLTSKAMSAPDGMIKIPLNEESSKGAGQIEEFLMQFNGEGIQHVAFLTDDLVKTWDALKKIGMRFLTAPGDEYYEMLEGRLPDHGEPVDQLQARGILLDGSSVEGDKRLLLQIFSEQLMGPVFFEFIQRKGDDGFGPHSFKVLFESMERDQVRRGVLTAD
modifications: mutant HPPD polypeptide
B7: SEQ ID NO:66 (protein)
chain: MADLYENPMGLMGFEFIEFASPTPGTLEPIFEIMGFTKVATHRSKNVHLYRQGEINLILNNEPNSIASYFAAEHGPSVCGMAFRVKDSQKAYNRALELGAQPIHIDTGPMELNLPAIKGIGGAPLYLIDRFGEGSSIYDIDFVYLEGVERNPVGAGLKVIDHLTHNVYRGRMVYWANFYEKLFNFREARYFDIKGEYTGLTSKAMSAPDGMIRIPLNEESSKGAGQIEEFLMQFNGEGIQHVAFLTDDLVKTWDALKKIGMRFLTAPGDEYYEMLEGRLPDHGEPVDQLQARGILLDGSSVEGDKRLLLQIFSEQLMGPVFFEFIQRKGDDGFGPDSFKVLFEQIERDQVRRGVLTAD
modifications: mutant HPPD polypeptide
B8: SEQ ID NO:63 (protein)
chain: MADLYENPMGLMGFEFIEFASPTPGTLEPIFEIMGFTKVATHRSKNVHLYRQGEINLILNNEPNSIASYFAAEHGPSVCGMAFRVKDSQKAYNRALELGAQPIHIDTGPMELNLPAIKGIGGAPLYLIDRFGEGSSIYDIDFVYLEGVERNPVGAGLKVIDHLTHNVYRGRMVYWANFYEKLFNFREARYFDIKGEYTGLTSKAMSAPDGMIKIALNEESSKGAGQIEEFLMQFNGEGIQHVAFLTDDLVKTWDALKKIGMRFLTAPGDEYYEMLEGRLPDHGEPVDQLQARGILLDGSSVEGDKRLLLQIFSEKLMGPVFFEFIQRKGDDGFGPHSFKVLFEQMERDQVRRGVLTAD
modifications: mutant HPPD polypeptide
B9: SEQ ID NO:67 (protein)
chain: MADLYENPMGLMGFEFIEFASPTPGTLEPIFEIMGFTKVATHRSKNVHLYRQGEINLILNNEPNSIASYFAAEHGPSVCGMAFRVKDSQKAYNRALELGAQPIHIDTGPMELNLPAIKGIGGAPLYLIDRFGEGSSIYDIDFVYLEGVERNPVGAGLKVIDHLTHNVYRGRMVYWANFYEKLFNFREARYFDIKGEYTGLTSKAMSAPDGMIRIALNEESSKGAGQIEEFLMQFNGEGIQHVAFLTDDLVKTWDALKKIGMRFLTAPGDEYYEMLEGRLPDHGEPVDQLQARGILLDGSSVEGDKRLLLQIFSEQLMGPVFFEFIQRKGDDGFGPDSFKVLFESVERDQVRRGVLTAD
modifications: mutant HPPD polypeptide

Test system: Pseudomonas fluorescens HPPD polypeptide (wild-type and mutants)
Assay: Coupled HPPD activity assay: turnover and residual turnover in crude HPPD polypeptide extracts with and without Cmpd. 1
Type: biochemical
Details: for Residual turnover [%]: 100 μM Cmpd. 1, normalised to turnover without inhibitor; for Turnover: absence of Cmpd. 1; for Turnover / Residual turnover: changes in absorbance (OD) at 320 nm in the coupled assay, 30 min; for Residual turnover: presence of 100 μM Cmpd. 1

Row | Molecule | Residual turnover [%] | Turnover | Residual turnover
1 | B1 | 81% | 0.339 | 0.276
2 | B2 | 60% | 0.204 | 0.123
3 | B3 | 74% | 0.182 | 0.134
4 | B4 | 56% | 0.252 | 0.14
5 | B5 | 59% | 0.215 | 0.126
6 | B6 | 61% | 0.295 | 0.181
7 | B7 | 65% | 0.187 | 0.122
8 | B8 | 67% | 0.209 | 0.139
9 | B9 | 90% | 0.141 | 0.127
